Patent US20220307010A1 (published 2022)

Tests used:
[1] = molecular target: TIGIT55-08
[2] = molecular target: TIGIT55-06
[3] = molecular target: TIGIT55-13
[4] = molecular target: TIGIT55-05
[5] = molecular target: TIGIT55-14
[6] = molecular target: TIGIT55-01
[7] = molecular target: TIGIT55-11

Kd [1]: 113 nM
Kd [2]: 153 nM
Kd [3]: 112 nM
Kd [4]: 97.6 nM
Kd [5]: 139 nM
Kd [6]: 15.9 nM
Kd [7]: 327 nM
B1: hTIGIT (receptor)
chain: MMTGTIETTGNISAEKGGSIILQCHLSSTTAQVTQVNWEQQDQLLAICNADLGWHISPSFKDRVAPGPGLGLTLQSLTVNDTGEYFCIYHTYPDGTYTGRIFLEVLESSVAEHGARFQIP
modifications: biotinylated antigen (site not given)
